# Data reported in patent US9580464B2, “Anti-inflammatory proteins and peptides and methods of preparation and use thereof” (ManukaMed Limited, priority 2012, dated 2017).
# B1: MGO-modified MRJP1: major royal jelly protein 1 (apalbumin 1) chemically modified by methylglyoxal (protein, UniProt O18330 20-432, looked up)
# Major royal jelly protein 1: NILRGESLNKSLPILHEWKFFDYDFGSDERRQDAILSGEYDYKNNYPSDIDQWHDKIFVTMLRYNGVPSSLNVISKKVGDGGPLLQPYPDWSFAKYDDCSGIVSASKLAIDKCDRLWVLDSGLVNNTQPMCSPKLLTFDLTTSQLLKQVEIPHDVAVNATTGKGRLSSLAVQSLDCNTNSDTMVYIADEKGEGLIVYHNSDDSFHRLTSNTFDYDPKFTKMTIDGESYTAQDGISGMALSPMTNNLYYSPVASTSLYYVNTEQFRTSDYQQNDIHYEGVQNILDTQSSAKVVSKSGVLFFGLVGDSALGCWNEHRTLERHNIRTVAQSDETLQMIASMKIKEALPHVPIFDRYINREYILVLSNKMQKMVNNDFNFDDVNFRIMNANVNELILNTRCENPDNDRTPFKISIHL
# modifications: methylglyoxal-modified
# notes: major royal jelly protein 1 (apalbumin 1) chemically modified by methylglyoxal
# Legend:
# [1] = target: Cathepsin B from bovine spleen (Bos taurus, UniProt P07688); assay: Assay for Cathepsin B activity / inhibition (Z-Lys-pNP substrate, absorbance 330 nm); assay type: biochemical
# [2] = Anti-inflammatory activity of MGO-modified proteins (results not shown)
# Excerpt: As used herein, “anti-inflammatory capacity” is defined as the capacity to clinically reduce inflammation or the symptoms of inflammation in cellular tissue. Anti-inflammatory capacity may be determined using the phagocytosis inhibition assay (PIA) described in PCT/NZ PCT/NZ/2011/000271 or the DCFDA assay also described in PCT/NZ/2011/000271 or the anti-inflammatory capacity may also be determined by the inhibition of Cathepsin B as described in detail below.
# [3] = Table 6, MRJP1 derived synthetic peptides, MGO-modified
# [4] = Table 6, MRJP1 derived synthetic peptides, unmodified
# [5] = Table 8, MRJP5 derived synthetic peptides, MGO-modified
# [6] = Table 8, MRJP5 derived synthetic peptides, unmodified
# [7] = Table 1, peptides from C-terminus of MRJP1, 2 mM MGO-modified peptide
# [8] = Table 1, peptides from C-terminus of MRJP1, 2 mM unmodified peptide
# [9] = Table 9, additional synthetic peptides, MGO-modified
# [10] = Table 9, additional synthetic peptides, unmodified
# [11] = Table 3, peptides from C-terminus of MRJP3, 2 mM MGO-modified peptide
# [12] = Table 3, peptides from C-terminus of MRJP3, 2 mM unmodified peptide
Molecule,"Cathepsin B remaining activity (% of control) [1, 3]","Cathepsin B remaining activity (% of control) [1, 4]","Cathepsin B remaining activity (% of control) [1, 5]","Cathepsin B remaining activity (% of control) [1, 6]",other results
Ac-CDR-OH (Ac-Cys-Asp-Arg-OH) [MRJP1 derived synthetic peptide],78.51 ± 2.51,120.52 ± 8.17,–,–,–
Ac-FDR-OH (Ac-Phe-Asp-Arg-OH) [MRJP1 derived synthetic peptide],44.78 ± 1.54,85.57 ± 3.51,–,–,–
Ac-FTK-OH (Ac-Phe-Thr-Lys-OH) [MRJP1 derived synthetic peptide],105.35 ± 5.73,148.84 ± 16.13,–,–,–
Ac-HNIR-OH [MRJP1 derived synthetic peptide],106.82 ± 3.02,171.58 ± 11.29,–,–,–
Ac-IDR-OH (Ac-Ile-Asp-Arg-OH) [MRJP5 derived synthetic peptide],–,–,81.75 ± 3.26,93.46 ± 12.24,–
Ac-KISI-OH [synthetic peptide derived from the C-terminus of MRJP1],–,–,–,–,"Cathepsin B remaining activity (% of control) [1, 7]: 92.82 ± 5.44; Cathepsin B remaining activity (% of control) [1, 8]: 133.11 ± 4.29"
"Ac-LIR-NH2 (Ac-Leu-Ile-Arg-NH2) [synthetic peptide derived from MRJP2, 4 (see Leu408), amidated C-terminus]",–,–,–,–,"Cathepsin B remaining activity (% of control) [1, 9]: 72.56; Cathepsin B remaining activity (% of control) [1, 10]: 65.39 ± 2.75"
"Ac-LIR-OH (Ac-Leu-Ile-Arg-OH) [synthetic peptide derived from MRJP2, 4 (see Leu408)]",–,–,–,–,"Cathepsin B inhibition after MGO modification ([1]; MGO-modified synthetic peptides): particularly potent activity; Cathepsin B remaining activity (% of control) [1, 9]: 0.07; Cathepsin B remaining activity (% of control) [1, 10]: 128.28 ± 2.50"
"Ac-LLK-NH2 (Ac-Leu-Leu-Lys-NH2) [synthetic peptide derived from MRJP1, 2, 4, amidated C-terminus]",–,–,–,–,"Cathepsin B remaining activity (% of control) [1, 9]: 136.90; Cathepsin B remaining activity (% of control) [1, 10]: 159.34 ± 2.34"
"Ac-LLK-OH (Ac-Leu-Leu-Lys-OH) [synthetic peptide derived from MRJP1, 2, 4]",–,–,–,–,"Cathepsin B remaining activity (% of control) [1, 9]: 147.60; Cathepsin B remaining activity (% of control) [1, 10]: 141.56 ± 13.90"
Ac-LQK-OH (Ac-Leu-Gln-Lys-OH) [MRJP5 derived synthetic peptide],–,–,90.15 ± 1.52,102.05 ± 10.32,–
"Ac-LVK-NH2 (Ac-Leu-Val-Lys-NH2) [synthetic peptide derived from MRJP3 (see Leu170), amidated C-terminus]",–,–,–,–,"Cathepsin B remaining activity (% of control) [1, 9]: 80.03; Cathepsin B remaining activity (% of control) [1, 10]: 92.71 ± 7.78"
Ac-LVK-OH (Ac-Leu-Val-Lys-OH) [synthetic peptide derived from MRJP3 (see Leu170)],–,–,–,–,"Cathepsin B remaining activity (% of control) [1, 9]: 80.84; Cathepsin B remaining activity (% of control) [1, 10]: 143.92 ± 3.15"
Ac-MDK-OH (Ac-Met-Asp-Lys-OH) [MRJP5 derived synthetic peptide],–,–,99.38 ± 1.63,109.67 ± 3.13,–
Ac-MDR-OH (Ac-Met-Asp-Arg-OH) [MRJP5 derived synthetic peptide],–,–,88.56 ± 2.14,107.34 ± 1.46,–
Ac-MHR-OH (Ac-Met-His-Arg-OH) [MRJP5 derived synthetic peptide],–,–,90.13 ± 17.28,101.26 ± 4.59,–
Ac-MQK-OH (Ac-Met-Gln-Lys-OH) [MRJP1 derived synthetic peptide],69.15 ± 4.87,121.24 ± 3.57,–,–,–
Ac-MTR-OH (Ac-Met-Thr-Arg-OH) [MRJP1 derived synthetic peptide],118.90 ± 5.62,126.30 ± 8.12,–,–,–
Ac-NQKN-OH [synthetic peptide derived from the C-terminus of MRJP2],–,–,–,–,"Cathepsin B remaining activity (% of control) ([1]; Table 2, peptides from C-terminus of MRJP2, 2 mM MGO-modified peptide): 102.36 ± 6.36; Cathepsin B remaining activity (% of control) ([1]; Table 2, peptides from C-terminus of MRJP2, 2 mM unmodified peptide): 282.39 ± 19.66"
Ac-PFKI-OH [synthetic peptide derived from the C-terminus of MRJP1],–,–,–,–,"Cathepsin B remaining activity (% of control) [1, 7]: 91.45 ± 0.11; Cathepsin B remaining activity (% of control) [1, 8]: 152.05 ± 13.20"
Ac-SKLH-OH [synthetic peptide derived from the C-terminus of MRJP3],–,–,–,–,"Cathepsin B remaining activity (% of control) [1, 11]: 67.57 ± 1.73; Cathepsin B remaining activity (% of control) [1, 12]: 146.35 ± 2.91"
Ac-SSKS-OH,–,–,–,–,"Cathepsin B remaining activity (% of control) [1, 11]: 107.49 ± 4.29; Cathepsin B remaining activity (% of control) [1, 12]: 118.71 ± 9.09"

Molecule,"Cathepsin B remaining activity (% of control) [1, 3]","Cathepsin B remaining activity (% of control) [1, 4]","Cathepsin B remaining activity (% of control) [1, 5]","Cathepsin B remaining activity (% of control) [1, 6]",other results
Ac-TDK-OH (Ac-Thr-Asp-Lys-OH) [MRJP5 derived synthetic peptide],–,–,92.75 ± 2.41,100.51 ± 10.69,–
Ac-TNR-OH (Ac-Thr-Asn-Arg-OH) [MRJP5 derived synthetic peptide],–,–,91.72 ± 0.84,96.48 ± 2.03,–
Ac-VNR-OH (Ac-Val-Asn-Arg-OH) [MRJP5 derived synthetic peptide],–,–,68.49 ± 8.73,99.83 ± 3.40,–
Ac-YINR-OH [MRJP1 derived synthetic peptide],99.05 ± 7.78,93.14 ± 2.42,–,–,–
H-CDR-OH (H-Cys-Asp-Arg-OH) [MRJP1 derived synthetic peptide],96.01 ± 6.45,165.10 ± 0.38,–,–,–
H-FDR-OH (H-Phe-Asp-Arg-OH) [MRJP1 derived synthetic peptide],71.18 ± 2.22,174.56 ± 11.96,–,–,–
H-FTK-OH (H-Phe-Thr-Lys-OH) [MRJP1 derived synthetic peptide],76.59 ± 2.24,147.63 ± 0.70,–,–,–
H-HNIR-OH [MRJP1 derived synthetic peptide],103.38 ± 3.65,151.51 ± 0.62,–,–,–
H-IDR-OH (H-Ile-Asp-Arg-OH) [MRJP5 derived synthetic peptide],–,–,85.60 ± 5.32,98.02 ± 2.54,–
H-LQK-OH (H-Leu-Gln-Lys-OH) [MRJP5 derived synthetic peptide],–,–,95.26 ± 5.54,102.47 ± 4.27,–
H-MDK-OH (H-Met-Asp-Lys-OH) [MRJP5 derived synthetic peptide],–,–,70.62 ± 12.34,104.25 ± 2.73,–
H-MDR-OH (H-Met-Asp-Arg-OH) [MRJP5 derived synthetic peptide],–,–,74.46 ± 0.97,101.73 ± 2.37,–
H-MHR-OH (H-Met-His-Arg-OH) [MRJP5 derived synthetic peptide],–,–,80.66 ± 6.19,96.77 ± 9.26,–
H-MQK-OH (H-Met-Gln-Lys-OH) [MRJP1 derived synthetic peptide],99.48 ± 2.95,127.00 ± 0.93,–,–,–
H-MTR-OH (H-Met-Thr-Arg-OH) [MRJP1 derived synthetic peptide],104.39 ± 2.68,143.48 ± 2.33,–,–,–
H-TDK-OH (H-Thr-Asp-Lys-OH) [MRJP5 derived synthetic peptide],–,–,87.53 ± 3.26,103.18 ± 4.50,–
H-TNR-OH (H-Thr-Asn-Arg-OH) [MRJP5 derived synthetic peptide],–,–,91.86 ± 3.50,102.61 ± 5.34,–
H-VNR-OH (H-Val-Asn-Arg-OH) [MRJP5 derived synthetic peptide],–,–,82.63 ± 7.88,97.75 ± 10.62,–
H-YINR-OH [MRJP1 derived synthetic peptide],79.21 ± 2.12,142.33 ± 3.64,–,–,–
"MGO-modified bovine serine albumin: bovine serum albumin reacted with methylglyoxal, comparison protein [reference compound]",–,–,–,–,Anti-inflammatory activity [2]: no anti-inflammatory activity
B1,–,–,–,–,Anti-inflammatory activity [2]: enhanced anti-inflammatory properties
